From patent US20230136228A1 (LAMKAP BIO ALPHA, published 2023)

How the values were obtained:
human CEACAM1 = molecular target: T1, human CEACAM1 (human, UniProt P13688 35-526); assay: flow cytometry, transfected PEAK cells
T1 construct: whole, on cells
T1 sequence (looked up): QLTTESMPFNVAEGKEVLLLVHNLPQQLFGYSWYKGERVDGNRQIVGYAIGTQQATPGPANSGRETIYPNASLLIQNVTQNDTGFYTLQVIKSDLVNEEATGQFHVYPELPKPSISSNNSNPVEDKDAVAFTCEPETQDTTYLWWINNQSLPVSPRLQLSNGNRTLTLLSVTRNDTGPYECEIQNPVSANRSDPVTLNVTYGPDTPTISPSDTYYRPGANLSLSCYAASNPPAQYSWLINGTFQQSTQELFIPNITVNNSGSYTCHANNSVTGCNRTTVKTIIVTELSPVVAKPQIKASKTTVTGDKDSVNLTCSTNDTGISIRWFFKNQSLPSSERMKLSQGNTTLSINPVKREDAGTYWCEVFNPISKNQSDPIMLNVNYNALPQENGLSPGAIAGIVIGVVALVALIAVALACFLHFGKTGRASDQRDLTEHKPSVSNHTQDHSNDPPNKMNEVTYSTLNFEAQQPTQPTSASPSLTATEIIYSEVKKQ
From the text: (§1) Vectors encoding the full-length version of human CEACAM 1, 3, 4, 5, 6, 7, 8, 18, 19, 20 and […] are used to express these proteins at the surface of PEAK and/or CHO cells as described in Example 1. Similarly, vectors encoding the full-length version of cyno CEACAM 5 and 6 are also used to express these proteins at the surface of PEAK and/or CHO cells. Non-transfected PEAK and/or CHO cells are used as negative control. Cells are harvested, counted, checked for viability and resuspended at 3×10⁶ cells/ml in FACS buffer (PBS 2% BSA, 0.1% NaN₃). 100 μl of the cell suspension are distributed in V-bottom 96-well plates (3×10⁵ cells/well). The supernatant is removed by centrifugation 3 minutes at 4° C., 1300 rpm and the cells incubated for 15 minutes at 4° C. with increasing concentrations of the antibody according to the invention. The antibodies carrying the anti-CEACAM5 arms to test are diluted in FACS buffer and the concentration range is 30 pM-500 nM. Cells are washed twice with cold FACS buffer and re-incubated for further 15 minutes at 4° C. with a compatible anti-human IgG secondary antibody. Cells are washed twice with cold FACS buffer and resuspended in 300 μl FACS buffer with 1:1500-diluted TOPRO-3 (Invitrogen). Fluorescence is measured using a FACSCalibur™ (BD Biosciences) or a Cytoflex Platform (Beckman Coulter). Dose-response binding curves are fitted using GraphPad Prism8 software. In the same manner, CEACAM1, CEACAM6 and other CEACAMs can be characterized.
(§2) For the bispecific antibodies AB17L3-1/N, AB71L3-1/N, AB72L3-1/N, AB73L3-1/N the MFI measured for binding to CEACAM5 transfected cells was found between 29000 and 41000 (Table 2). In contrast MFI found by using PEAK cells transfected with CEACAM 1,3,4,6,8 were found below 1000 with the only exception of a strong signal for AB72L3-1/N on CEACAM8 transfected cells. When MFI values obtained on transfected cells expressing any given CEACAM are divided by the values obtained on WT PEAK cells, “factors to PEAK WT” can be calculated (Table 3).

human CEACAM3 = molecular target: T2, human CEACAM3 (human, UniProt P40198 35-252); assay: flow cytometry, transfected PEAK cells
T2 construct: whole, on cells
T2 sequence (looked up): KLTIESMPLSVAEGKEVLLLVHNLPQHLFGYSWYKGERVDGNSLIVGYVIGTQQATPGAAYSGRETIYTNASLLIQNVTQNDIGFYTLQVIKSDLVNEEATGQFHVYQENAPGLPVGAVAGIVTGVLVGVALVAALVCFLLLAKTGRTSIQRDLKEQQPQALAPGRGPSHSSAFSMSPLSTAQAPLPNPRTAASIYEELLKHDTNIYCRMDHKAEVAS
From the text: as §1, §2

human CEACAM4 = molecular target: T3, human CEACAM4 (human, UniProt O75871 36-244); assay: flow cytometry, transfected PEAK cells
T3 construct: whole, on cells
T3 sequence (looked up): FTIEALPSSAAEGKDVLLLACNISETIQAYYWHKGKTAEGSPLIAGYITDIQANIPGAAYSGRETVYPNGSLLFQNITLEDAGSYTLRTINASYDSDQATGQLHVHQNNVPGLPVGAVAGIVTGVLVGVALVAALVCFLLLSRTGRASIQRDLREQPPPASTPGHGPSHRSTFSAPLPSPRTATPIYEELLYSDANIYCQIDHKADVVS
From the text: as §1, §2

human CEACAM6 = molecular target: T4, human CEACAM6 (human, UniProt P40199 35-320); assay: flow cytometry, transfected PEAK cells
T4 construct: whole, on cells; also called CD66c
T4 sequence (looked up): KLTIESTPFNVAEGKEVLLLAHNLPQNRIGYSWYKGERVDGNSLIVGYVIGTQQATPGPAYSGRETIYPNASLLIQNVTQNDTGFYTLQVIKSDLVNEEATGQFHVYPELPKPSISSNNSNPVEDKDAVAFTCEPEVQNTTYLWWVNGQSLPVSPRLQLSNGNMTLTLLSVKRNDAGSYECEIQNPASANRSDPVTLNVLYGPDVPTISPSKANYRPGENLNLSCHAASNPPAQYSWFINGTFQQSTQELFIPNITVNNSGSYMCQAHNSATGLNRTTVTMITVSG
From the text: as §1, §2

[1] = molecular target: T5, human CEACAM5 (carcinoembryonic antigen, CEA), cell surface (human, UniProt P06731 35-685); assay: flow cytometry, transfected PEAK cells, 10 mcg/ml
T5 construct: whole, on cells; also called CD66e
T5 sequence (looked up): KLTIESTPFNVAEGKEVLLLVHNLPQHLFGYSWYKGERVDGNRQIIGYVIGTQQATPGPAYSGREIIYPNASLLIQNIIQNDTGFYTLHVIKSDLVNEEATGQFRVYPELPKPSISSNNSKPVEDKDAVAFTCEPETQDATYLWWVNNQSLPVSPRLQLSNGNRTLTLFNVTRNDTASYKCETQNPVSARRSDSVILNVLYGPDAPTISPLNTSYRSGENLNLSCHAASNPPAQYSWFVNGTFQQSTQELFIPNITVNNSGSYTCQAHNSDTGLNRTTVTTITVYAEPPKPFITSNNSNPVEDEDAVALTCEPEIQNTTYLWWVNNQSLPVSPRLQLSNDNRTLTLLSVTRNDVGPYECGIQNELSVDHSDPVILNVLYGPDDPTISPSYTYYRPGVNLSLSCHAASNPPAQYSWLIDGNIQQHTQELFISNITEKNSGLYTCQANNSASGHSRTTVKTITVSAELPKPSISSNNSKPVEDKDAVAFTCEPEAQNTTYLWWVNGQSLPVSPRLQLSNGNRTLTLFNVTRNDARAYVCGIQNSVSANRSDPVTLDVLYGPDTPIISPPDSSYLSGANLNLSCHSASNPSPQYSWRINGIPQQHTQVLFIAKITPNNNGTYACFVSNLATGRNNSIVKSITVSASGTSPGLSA
From the text: as §1, §2

| Binder | binding result (human CEACAM1) | binding result (human CEACAM3) | binding result (human CEACAM4) | binding result (human CEACAM6) | MFI [1] |
| --- | --- | --- | --- | --- | --- |
| AB17L3-1/N (bispecific antibody, human IgG1, kappa, lambda, L234A L235A, Kappa-lambda body, lead optimization wave 1) heavy: EVQLVESGGGLVQPGGSLKLSCAASGFTFNTYAMNWVRQAPGKGLEWVGRIRSKYNNYATYYADSVKDRFTISRDDSKNTAYLQMNSLKTEDTAVYYCVRHGNFGNSYVSWFAYWGQGTLVTVSSASTKGPSVFPLAPSSKSTSGGTAALGCLVKDYFPEPVTVSWNSGALTSGVHTFPAVLQSSGLYSLSSVVTVPSSSLGTQTYICNVNHKPSNTKVDKRVEPKSCDKTHTCPPCPAPEAAGGPSVFLFPPKPKDTLMISRTPEVTCVVVDVSHEDPEVKFNWYVDGVEVHNAKTKPREEQYNSTYRVVSVLTVLHQDWLNGKEYKCKVSNKALAAPIEKTISKAKGQPREPQVYTLPPSREEMTKNQVSLTCLVKGFYPSDIAVEWESNGQPENNYKTTPPVLDSDGSFFLYSKLTVDKSRWQQGNVFSCSVMHEALHNHYTQKSLSLSPG light 1: EIVLTQSPATLSLSPGERATLSCRASQSVNSNLNWYQQKPGQAPRLLIYHGSNRATGIPARFSGSGSGTDFTLTISSLEPEDFAVYYCQQFDYFKEHNTFGQGTKVEIKRTVAAPSVFIFPPSDEQLKSGTASVVCLLNNFYPREAKVQWKVDNALQSGNSQESVTEQDSKDSTYSLSSTLTLSKADYEKHKVYACEVTHQGLSSPVTKSFNRGEC light 2: QTVVTQEPSLTVSPGGTVTLTCRSSTGAVTTSNYANWFQQKPGQAPRGLIGGTNKRAPGTPARFSGSLLGGKAALTLSGAQPEDEAEYYCALWYKQRWVFGGGTKLTVLGQPKAAPSVTLFPPSSEELQANKATLVCLISDFYPGAVTVAWKADSSPVKAGVETTTPSKQSNNKYAASSYLSLTPEQWKSHRSYSCQVTHEGSTVEKTVAPTECS | no binding (tested: 10 mcg/ml) | no binding (tested: 10 mcg/ml) | no binding (tested: 10 mcg/ml) | no binding (tested: 10 mcg/ml) | 29200 MFI |
| AB71L3-1/N (bispecific antibody, human IgG1, kappa, lambda, L234A L235A, Kappa-lambda body, lead optimization wave 2) heavy: EVQLVESGGGLVQPGGSLKLSCAASGFTFNTYAMNWVRQAPGKGLEWVGRIRSKYNNYATYYADSVKDRFTISRDDSKNTAYLQMNSLKTEDTAVYYCVRHGNFGNSYVSWFAYWGQGTLVTVSSASTKGPSVFPLAPSSKSTSGGTAALGCLVKDYFPEPVTVSWNSGALTSGVHTFPAVLQSSGLYSLSSVVTVPSSSLGTQTYICNVNHKPSNTKVDKRVEPKSCDKTHTCPPCPAPEAAGGPSVFLFPPKPKDTLMISRTPEVTCVVVDVSHEDPEVKFNWYVDGVEVHNAKTKPREEQYNSTYRVVSVLTVLHQDWLNGKEYKCKVSNKALAAPIEKTISKAKGQPREPQVYTLPPSREEMTKNQVSLTCLVKGFYPSDIAVEWESNGQPENNYKTTPPVLDSDGSFFLYSKLTVDKSRWQQGNVFSCSVMHEALHNHYTQKSLSLSPG light 1: EIVLTQSPATLSLSPGERATLSCRASQSVNSNLNWYQQKPGQAPRLLIYHSSNRPHGIPARFSGSGSGTDFTLTISSLEPEDFAVYYCQQFDYFKEHNTFGQGTKVEIKRTVAAPSVFIFPPSDEQLKSGTASVVCLLNNFYPREAKVQWKVDNALQSGNSQESVTEQDSKDSTYSLSSTLTLSKADYEKHKVYACEVTHQGLSSPVTKSFNRGEC light 2: QTVVTQEPSLTVSPGGTVTLTCRSSTGAVTTSNYANWFQQKPGQAPRGLIGGTNKRAPGTPARFSGSLLGGKAALTLSGAQPEDEAEYYCALWYKQRWVFGGGTKLTVLGQPKAAPSVTLFPPSSEELQANKATLVCLISDFYPGAVTVAWKADSSPVKAGVETTTPSKQSNNKYAASSYLSLTPEQWKSHRSYSCQVTHEGSTVEKTVAPTECS | – | – | – | – | 35100 MFI |
| AB73L3-1/N (bispecific antibody, human IgG1, kappa, lambda, L234A L235A, Kappa-lambda body, lead optimization wave 2) heavy: EVQLVESGGGLVQPGGSLKLSCAASGFTFNTYAMNWVRQAPGKGLEWVGRIRSKYNNYATYYADSVKDRFTISRDDSKNTAYLQMNSLKTEDTAVYYCVRHGNFGNSYVSWFAYWGQGTLVTVSSASTKGPSVFPLAPSSKSTSGGTAALGCLVKDYFPEPVTVSWNSGALTSGVHTFPAVLQSSGLYSLSSVVTVPSSSLGTQTYICNVNHKPSNTKVDKRVEPKSCDKTHTCPPCPAPEAAGGPSVFLFPPKPKDTLMISRTPEVTCVVVDVSHEDPEVKFNWYVDGVEVHNAKTKPREEQYNSTYRVVSVLTVLHQDWLNGKEYKCKVSNKALAAPIEKTISKAKGQPREPQVYTLPPSREEMTKNQVSLTCLVKGFYPSDIAVEWESNGQPENNYKTTPPVLDSDGSFFLYSKLTVDKSRWQQGNVFSCSVMHEALHNHYTQKSLSLSPG light 1: EIVLTQSPATLSLSPGERATLSCRASQSVNSNLNWYQQKPGQAPRLLIYHSNNRPHGIPARFSGSGSGTDFTLTISSLEPEDFAVYYCQQFDYFREYNTFGQGTKVEIKRTVAAPSVFIFPPSDEQLKSGTASVVCLLNNFYPREAKVQWKVDNALQSGNSQESVTEQDSKDSTYSLSSTLTLSKADYEKHKVYACEVTHQGLSSPVTKSFNRGEC light 2: QTVVTQEPSLTVSPGGTVTLTCRSSTGAVTTSNYANWFQQKPGQAPRGLIGGTNKRAPGTPARFSGSLLGGKAALTLSGAQPEDEAEYYCALWYKQRWVFGGGTKLTVLGQPKAAPSVTLFPPSSEELQANKATLVCLISDFYPGAVTVAWKADSSPVKAGVETTTPSKQSNNKYAASSYLSLTPEQWKSHRSYSCQVTHEGSTVEKTVAPTECS | – | – | – | – | 36200 MFI |
